Reference: article PMC7587441, “Plasmodium falciparum Apicomplexan-Specific Glucosamine-6-Phosphate N-Acetyltransferase Is Key for Amino Sugar Metabolism and Asexual Blood Stage Development” (mBio, 2020)

Target: Cryptosporidium parvum glucosamine-6-phosphate N-acetyltransferase (CpGNA1) (Cryptosporidium parvum)
Assay: crystal structure; CpGNA1 (1.5 mg/ml) cocrystallised with 10 mM acetyl-CoA, soaked with 50 mM acetyl-CoA and 50 mM Glc6P; space group P2(1)2(1)2(1), two monomers in the asymmetric unit; 1.95 Å

- stoichiometry N: 2
Substance: Cryptosporidium parvum glucosamine-6-phosphate N-acetyltransferase (CpGNA1) (enzyme)
